Substitutions are numbered along the chain they refer to.
Experiments:
[1] = biological target: T1, biotinylated-Lag3 (UniProt P18627 23-450, limits assumed, biotinylated); test: ELISA, inhibition of biotinylated-Lag3 binding to MHC-II on A375 cells (competitor MHC-II)
T1 construct: Probably a human LAG3 ECD construct; also called Lag3 (MHCII/ELISA)
T1 sequence (looked up): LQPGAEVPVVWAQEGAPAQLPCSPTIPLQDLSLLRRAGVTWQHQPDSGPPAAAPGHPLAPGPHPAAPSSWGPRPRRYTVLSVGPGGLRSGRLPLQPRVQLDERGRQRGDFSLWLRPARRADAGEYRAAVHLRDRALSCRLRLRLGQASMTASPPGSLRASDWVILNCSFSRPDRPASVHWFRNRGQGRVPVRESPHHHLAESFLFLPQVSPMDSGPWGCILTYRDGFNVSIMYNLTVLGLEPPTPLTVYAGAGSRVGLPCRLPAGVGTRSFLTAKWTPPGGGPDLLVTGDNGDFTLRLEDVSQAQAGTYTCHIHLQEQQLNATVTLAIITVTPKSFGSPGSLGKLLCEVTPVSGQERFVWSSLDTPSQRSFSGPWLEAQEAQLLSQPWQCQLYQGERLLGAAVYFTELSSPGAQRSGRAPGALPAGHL
Procedure: 25 μl/well of A375 cells (10000 cells/well) were seeded into tissue culture treated 384-well plates (Corning, 3701) and incubated at 37° C. overnight. […] After washing (1×90 μl in PBST) cells were fixed by addition of 30 μl/well glutaraldehyde to a final concentration of 0.05% (Sigma Cat.No: G5882), 10 min at room temperature. After washing (3×90 μl/well with PBST-buffer) 25 μl/well Poly-HRP40-Streptavidin (Fitzgerald, 65R-S104PHRPx) was added in a 1:2000 or 1:8000 dilution and incubated at RT for 1 h. After washing (3×90 μl/well with PBST-buffer) 25 μl/well TMB substrate (Roche, #11835033001) was added and incubated for 2 to 10 min. Measurement took place on a Tecan Safire 2 instrument at 370/492 nm.

[2] = biological target: T2, cynomolgus LAG3 on cells (cynomolgus); test: flow cytometry on activated cynomolgus PBMC, 10 µg/ml (only 2nd Ab (rb): 5.26)
T2 construct: whole, on cells; also called cyno-LAG-3; cynoLAG3
Procedure: Thus, cynomolgus peripheral blood mononuclear cells (PBMC) were prepared from fresh cynomolgus blood and were then activated by CD3/CD28 pre-treatment (1 μg/ml) for 2-3 days. […] After staining, cells were washed two times with PBS/2% FCS and analyzed on a FACS Fortessa (BD).

[3] = biological target: T2, cynomolgus LAG3 on cells; test: flow cytometry on HEK293F cells transfected with cyno-LAG-3, antibody 10 µg/ml
Procedure: 1.5×10⁵ cells/well were seeded into 96-well plates. […] HEK cells were incubated with indicated antibodies for 45 min on ice, washed twice with 200 μl ice-cold PBS buffer containing 2% FBS, before secondary antibody (APC-labelled goat anti-human IgG-kappa, Invitrogen, cat.no. #MH10515) was added (1:50 diluted in FACS-Puffer/well) and further incubated for 30 min on ice. Cells were again washed twice with 200 μl ice-cold PBS/2% FBS buffer before samples were finally resuspended in 150 μl FACS buffer and binding was measured on FACS CANTO-II HTS Module.

[4] = biological target: T3, LAG3 on cells (recombinant CHO cells expressing Lag3) (human, UniProt P18627 29-525); test: cell-based or functional assay
T3 sequence: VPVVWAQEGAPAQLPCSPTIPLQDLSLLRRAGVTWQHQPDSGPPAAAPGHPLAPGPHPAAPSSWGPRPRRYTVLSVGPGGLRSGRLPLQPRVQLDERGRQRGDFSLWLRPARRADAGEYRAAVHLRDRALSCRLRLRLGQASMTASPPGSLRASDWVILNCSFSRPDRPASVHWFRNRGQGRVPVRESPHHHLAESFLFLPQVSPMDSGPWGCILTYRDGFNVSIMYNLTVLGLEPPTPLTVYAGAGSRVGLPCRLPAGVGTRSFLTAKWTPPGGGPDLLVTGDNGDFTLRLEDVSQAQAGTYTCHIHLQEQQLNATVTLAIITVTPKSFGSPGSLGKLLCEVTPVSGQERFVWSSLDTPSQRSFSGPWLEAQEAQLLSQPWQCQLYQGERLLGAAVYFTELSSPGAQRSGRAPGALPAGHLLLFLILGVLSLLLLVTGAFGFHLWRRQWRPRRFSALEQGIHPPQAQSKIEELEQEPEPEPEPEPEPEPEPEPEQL

[5] = biological target: T4, human Fc tagged human Lag3 extra cellular domain (human, UniProt P18627 29-450, biotinylated in the epitope binning, the SA CAP SPR and the FACS competition assay); test: FACS, inhibition of biotinylated Lag3:Fc binding to MHC-II on A375 cells (competitor MHC-II); antibody 10 µg/ml
T4 construct: In-house fusion; also called huLag3-Fc; biotinylated, huFc-tagged huLag3; not shown: human Fc tag
T4 sequence: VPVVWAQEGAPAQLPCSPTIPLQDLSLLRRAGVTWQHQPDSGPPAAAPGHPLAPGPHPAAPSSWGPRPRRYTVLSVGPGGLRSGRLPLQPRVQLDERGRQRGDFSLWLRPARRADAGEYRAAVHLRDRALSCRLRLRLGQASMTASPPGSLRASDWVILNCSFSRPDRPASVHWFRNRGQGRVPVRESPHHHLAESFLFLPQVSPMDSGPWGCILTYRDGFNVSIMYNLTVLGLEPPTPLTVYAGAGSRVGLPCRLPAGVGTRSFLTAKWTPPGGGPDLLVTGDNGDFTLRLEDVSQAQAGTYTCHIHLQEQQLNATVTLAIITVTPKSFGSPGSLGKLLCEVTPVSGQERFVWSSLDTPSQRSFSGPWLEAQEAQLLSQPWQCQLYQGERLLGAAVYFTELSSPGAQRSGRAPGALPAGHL
Procedure: This analysis was studied in a FACS competition experiment: A375 cells (ATCC, #CRL-1619) were cultured for 2-3 passages in EM Eagle's medium supplemented with EBSS (PAN, cat.no. #P04-00509), 10% FBS, 2 mM L-Glutamin, 1×NEAA and 1× Sodium Pyruvate. All antibodies, were diluted in FACS buffer to a final concentration of 20 μg/ml in 25 μl (in 96well U-bottom plates). […] A375 cells were washed with PBS and adjusted to 3×10⁶ cells/ml in PBS. 100 μl were seeded per well in a 96well V-bottom plate. Plates were centrifuged and supernatant was removed. […] After this, cells were washed with 200 μl FACS buffer. […] After staining, cells were again washed and then transferred in 150 μl FACS buffer (PBS/2% FBS) to a U-bottom plate and analyzed on a FACS Canto-II using an HTS module.
All antibodies were used at 10 μg/ml final concentration.

[6] = biological target: T3, LAG3 on cells (recombinant CHO cells …); test: cell ELISA on recombinant CHO cells expressing Lag3
Procedure: After washing (1×90 μl in PBST) cells were fixed by addition of 30 μl/well glutaraldehyde to a final concentration of 0.05% (Sigma Cat.No: G5882), 10 min at room temperature. After washing (3×90 μl/well with PBST-buffer) 25 μl/well goat anti-Human Ig κ chain antibody-HRP conjugate (Milipore, AP502P) was added in a 1:1000 dilution and incubated at RT for 1 h. After washing (3×90 μl/well with PBST-buffer) 25 μl/well TMB substrate (Roche, 11835033001) was added and incubated for 6-10 min. Measurement took place on a Tecan Safire 2 instrument at 370/492 nm.

B1: aLAG3(0414) (antibody, V domains shown)
VH: EVQLLESGGGLVQPGGSLRLSCAASGFIFDDYTMNWVRQAPGKGLEWVAVISWDGGGTYYTDSVKGRFTISRDDFKNTLYLQMNSLRAEDTAVYYCAKGLTDTTLYGSDYWGQGTLVTVSS
VL: DIQMTQSPSSLSASVGDRVTITCRASQSISSYLNWYQQKPGKAPKLLIYAASTLQSGVPSRFSGSGSGTDFTLTISSLQPEDFATYYCQQTYSSPLTFGGGTKVEIKG
[1]
  IC50: 0.9 nM
[2]
  % positive cyno cells (PBLs) after CD3/CD28 activation: 43%
[3]
  % pos.: 81.6%
  GeoMean: 9170
[4]
  EC50 [nM] in Jurkat LAG3 + SED + Raji (NFAT luciferase), 1st assay: 1.1 nM
  EC50 [nM] in Jurkat LAG3 + SED + Raji (NFAT luciferase), 2nd assay: 1 nM
  EC50 [nM] in Jurkat LAG3 + SED + Raji (NFAT luciferase), 3rd assay: 1.8 nM
[5]
  % Inhibition: 67.3%
[6]
  CHO-cell ELISA inflexion point: 48.1 ng/mL

B2: aLAG3(0416) (antibody, V domains shown)
VH: EVQLVESGGGLVQPGGSLRLACAASGFTFSDYAMSWVRQAPGKGLEWVSGIDNSGYYTYYTDSVKGRFTISRDDVKNTLYLQMNSLRAEDTAVYLCTKTHSGLIVNDAFDIWGQGTMVTVSS
VL: B1 VL with M4L, A50D, T53S, Q55E, F71A, T91S, S94T
[1]
  IC50: 0.9 nM
[2]
  % positive cyno cells (PBLs) after CD3/CD28 activation: 38.9%
[3]
  % pos.: 67.9%
  GeoMean: 4220
[4]
  EC50 [nM] in Jurkat LAG3 + SED + Raji (NFAT luciferase), 1st assay: 3.1 nM
  EC50 [nM] in Jurkat LAG3 + SED + Raji (NFAT luciferase), 2nd assay: 2.5 nM
  EC50 [nM] in Jurkat LAG3 + SED + Raji (NFAT luciferase), 3rd assay: 3.5 nM
[5]
  % Inhibition: 68.6%
[6]
  CHO-cell ELISA inflexion point: 37.2 ng/mL

B3: aLAG3(0417) (antibody, V domains shown)
VH: B2 VH
VL: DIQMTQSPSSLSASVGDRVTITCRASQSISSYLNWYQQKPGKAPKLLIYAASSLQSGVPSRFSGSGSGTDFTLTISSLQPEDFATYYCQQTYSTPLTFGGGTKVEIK
notes: also called aLAG3 (417)
[1]
  IC50: 0.9 nM
[2]
  % positive cyno cells (PBLs) after CD3/CD28 activation: 35.3%
[3]
  % pos.: 75.9%
  GeoMean: 7120
[4]
  EC50 [nM] in Jurkat LAG3 + SED + Raji (NFAT luciferase), 1st assay: 1 nM
[5]
  % Inhibition: 59.1%
[6]
  CHO-cell ELISA inflexion point: 27.8 ng/mL

B4: aLAG3(0411) (antibody, V domains shown)
VH: B1 VH with Q3H, F29V, A49S, G57A, T61A, T103D
VL: DIQMTQSPSSLSASVGDRVTITCRASQSIVSYLNWYQQKPGKAPKLLIYASSSLQSGVPSRFSGSGSGTDFTLTISSLQPEDFATYYCQQTYSTPLTFGGGTKVEIK
notes: also called aLAG3 (411)
[1]
  IC50: 0.8 nM
[2]
  % positive cyno cells (PBLs) after CD3/CD28 activation: 46.6%
[3]
  % pos.: 88.6%
  GeoMean: 11000
[4]
  EC50 [nM] in Jurkat LAG3 + SED + Raji (NFAT luciferase), 1st assay: 1.1 nM
  EC50 [nM] in Jurkat LAG3 + SED + Raji (NFAT luciferase), 2nd assay: 1 nM
[5]
  % Inhibition: 45.6%
[6]
  CHO-cell ELISA inflexion point: 41.3 ng/mL

B5: aLAG3(0403) (antibody, V domains shown)
VH: EVQLLESGGGLVQPGGSLRLSCAASGFTFDDYTMHWVRQAPGKGLEWVSLVSWDGGGTYYTNSVKGRFTISRDNSKNTLYLQMNSLRAEDTAVYFCAKAITDTSLYGYDYWGQGILVTVSS
VL: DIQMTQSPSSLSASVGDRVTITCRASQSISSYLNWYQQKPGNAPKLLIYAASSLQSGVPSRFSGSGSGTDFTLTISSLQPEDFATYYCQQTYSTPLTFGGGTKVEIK
[1]
  IC50: 0.9 nM
[2]
  % positive cyno cells (PBLs) after CD3/CD28 activation: 44.2%
[3]
  % pos.: 82%
  GeoMean: 7460
[5]
  % Inhibition: 34.9%
[6]
  CHO-cell ELISA inflexion point: 30.9 ng/mL

From patent publication US20220387586A1 (Hoffmann-La Roche, published 2022)
